Measured values as given in article PMC9536298.

How the values were obtained:
[1] = molecular target: zinc finger protein ZPR1, endogenous human (human (endogenous in HeLa and human fibroblasts)) (UniProt O75312); assay: co-IP
[2] = molecular target: survival motor neuron protein (SMN), endogenous human (human (endogenous in human fibroblasts)) (UniProt Q16637); assay: co-IP
survival motor neuron protein (SMN), endogenous human (human (endogenous in human fibroblasts)), sequence (Q16637 whole entry): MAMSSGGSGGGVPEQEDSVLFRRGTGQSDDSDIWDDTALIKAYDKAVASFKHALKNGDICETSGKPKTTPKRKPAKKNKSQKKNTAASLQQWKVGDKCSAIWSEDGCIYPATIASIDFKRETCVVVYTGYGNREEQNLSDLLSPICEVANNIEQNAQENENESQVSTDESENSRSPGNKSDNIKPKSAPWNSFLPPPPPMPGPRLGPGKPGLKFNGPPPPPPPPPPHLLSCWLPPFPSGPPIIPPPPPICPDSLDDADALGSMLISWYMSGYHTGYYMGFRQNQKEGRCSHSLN

zinc finger protein ZPR1, endogenous human (human (endogenous in HeLa and human fibroblasts)), sequence (O75312 whole entry): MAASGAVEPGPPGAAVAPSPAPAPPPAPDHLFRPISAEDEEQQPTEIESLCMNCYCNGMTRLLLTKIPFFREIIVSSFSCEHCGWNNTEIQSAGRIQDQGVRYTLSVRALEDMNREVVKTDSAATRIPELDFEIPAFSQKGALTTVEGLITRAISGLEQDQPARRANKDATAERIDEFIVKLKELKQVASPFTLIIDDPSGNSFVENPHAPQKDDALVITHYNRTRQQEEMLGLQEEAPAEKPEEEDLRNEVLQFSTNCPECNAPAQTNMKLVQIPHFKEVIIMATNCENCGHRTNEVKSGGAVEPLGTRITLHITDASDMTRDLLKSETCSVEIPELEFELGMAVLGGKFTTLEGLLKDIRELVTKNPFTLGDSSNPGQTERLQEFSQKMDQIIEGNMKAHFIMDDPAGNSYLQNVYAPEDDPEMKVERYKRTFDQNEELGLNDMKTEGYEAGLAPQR

senataxin (SETX), endogenous human, Q7Z333 1-2677
co-IP level with ZPR1 in SMA cells, % of normal cells [1]: 44.8% | co-IP level with SMN in SMA cells, % of normal cells [2]: 25.8%
